Measurements published in paper PMC4529466, “Intradermal insulin infusion achieves faster insulin action than subcutaneous infusion for 3-day wear” (Drug Delivery and Translational Research, 2015).

What was measured:
[1] = Safety: adverse events, hypoglycemia, Draize erythema and edema scoring of infusion site; format: in vivo, human (T1DM patients)
Procedure: Safety evaluations comprised of recording/classification of adverse events (including hypoglycemia, BG < 60 mg/dL with or without symptoms), physical examinations, clinical laboratory parameters, vital signs, subjective pain assessments, and assessments of local tissue response at the injection site. Visual observations of the area around the infusion site for skin irritation, insulin leakage, and any notable abnormalities were recorded after each bolus delivery. Upon device removal, the study physician checked the site of insulin administration, as well as 1 and 2 h later, and scored any local reactions according to the Draize erythema and edema scale.
Pharmacokinetic parameters were derived from baseline corrected blood insulin data. The pharmacokinetic and pharmacodynamic populations included all patients with data from either route across 3 days of infusion and patients exposed to at least one trial product with available data respective of PK/PD endpoints. PK and PD endpoints were analyzed using a linear mixed effects model (ANOVA) with sequence, application route, meal, and day as factors along with interactions. The safety population included all patients who had participated in any trial-related activity after randomization. VAS pain data comparisons were made between application routes at each assessment time point using a similar model. Safety evaluations were summarized by descriptive statistics.

[2] = VAS self-rated pain perception of bolus delivery and daily infusion; format: in vivo, human (T1DM patients); settings: ID compared to SC infusion
Procedure: Patients rated bolus-associated pain immediately after insulin delivery for both meals and again each evening at approximately 6 PM after completion of the morning dosing and sampling cycles to rate overall discomfort from the infusion process during the preceding 24 h. The visual analog scale (VAS) utilized a standard validated 10-cm scale anchored by “no pain” (score 0) and “severe pain” (score 10) without inclusion of additional numerical or verbal descriptors to avoid clustering of scores around intermediate points. Scores were measured as absolute distant from origin. Within 1 h prior to device removal, patients completed a non-validated user acceptability questionnaire consisting of a set of standard multiple choice closed-ended questions covering acceptability of sensations for infusion sets application and operation, set satisfaction, willingness to use the respective infusion set again, and set preference. Responses were restricted to a 5-point scale generally ranging from extreme agreement/satisfaction to extreme disagreement/satisfaction depending upon the question. […]
Pharmacokinetic parameters were derived from baseline corrected blood insulin data. […] PK and PD endpoints were analyzed using a linear mixed effects model (ANOVA) with sequence, application route, meal, and day as factors along with interactions. […]

insulin aspart
hypoglycemic episodes (BG below 60 mg/dL) ([1]; ID infusion): 67 episodes | subjects with hypoglycemic episodes ([1]; ID infusion): 22 subjects | instances with Draize erythema score 2 ([1]; ID route, within 2 h after set removal on day 3): 4/24 | hypoglycemic episodes (BG below 60 mg/dL) ([1]; SC infusion): 56 episodes | subjects with hypoglycemic episodes ([1]; SC infusion): 18 subjects | detected hypoglycemic episodes, total ([1]; across the study, both routes, majority asymptomatic): 123 episodes | Draize erythema and edema upon removal of infusion set ([1]; both routes, immediately after removal on day 3): essentially no detectable erythema or edema | adverse events (AEs), total ([1]; entire study, both routes, mild to moderate severity, none serious): 31 | VAS self-rated pain [2]: statistically greater for ID compared to SC infusion
